Where a chain is given by its changes, count along the chain named.
How the values were obtained:
DRB4 H32A/K133A = biological target: T1, DRB4 H32A/K133A (Arabidopsis thaliana, UniProt Q8H1D4 1-355, H32A;K133A); assay: EMSA
T1 sequence: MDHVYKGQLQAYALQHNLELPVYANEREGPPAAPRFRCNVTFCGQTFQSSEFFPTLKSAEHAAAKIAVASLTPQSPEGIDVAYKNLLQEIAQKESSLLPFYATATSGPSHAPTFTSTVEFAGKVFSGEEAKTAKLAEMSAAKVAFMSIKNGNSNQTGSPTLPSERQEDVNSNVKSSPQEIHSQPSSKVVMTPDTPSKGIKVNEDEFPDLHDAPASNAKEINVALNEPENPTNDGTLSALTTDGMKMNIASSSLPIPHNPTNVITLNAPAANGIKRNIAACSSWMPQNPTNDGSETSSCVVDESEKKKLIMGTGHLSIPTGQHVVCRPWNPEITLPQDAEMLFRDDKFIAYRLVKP

DRB4D1D2 = biological target: T2, DRB4D1D2 (Arabidopsis thaliana, UniProt Q8H1D4 1-153); assay: ITC
T2 sequence: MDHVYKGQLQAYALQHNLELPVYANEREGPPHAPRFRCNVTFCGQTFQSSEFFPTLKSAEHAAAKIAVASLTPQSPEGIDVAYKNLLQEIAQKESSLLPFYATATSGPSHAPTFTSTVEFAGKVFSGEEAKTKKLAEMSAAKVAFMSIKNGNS

DRB4 = biological target: T3, DRB4 (Arabidopsis thaliana, UniProt Q8H1D4 1-355); assay: ITC
T3 sequence: T1 sequence with A32H, A133K

DRB4C = biological target: T4, DRB4C (Arabidopsis thaliana, UniProt Q8H1D4 154-355); assay: EMSA
T4 sequence: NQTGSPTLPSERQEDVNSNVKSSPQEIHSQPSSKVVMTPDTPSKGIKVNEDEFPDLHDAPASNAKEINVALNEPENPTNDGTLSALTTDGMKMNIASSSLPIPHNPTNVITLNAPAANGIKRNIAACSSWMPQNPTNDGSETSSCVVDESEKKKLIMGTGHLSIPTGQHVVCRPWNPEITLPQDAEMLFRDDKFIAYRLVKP

DRB4D1D2 H32A/K133A = biological target: T5, DRB4D1D2 H32A/K133A (Arabidopsis thaliana, UniProt Q8H1D4 1-153, H32A;K133A); assay: EMSA
T5 sequence: T2 sequence with H32A, K133A

DRB4D2D1 = biological target: T6, DRB4D2D1 (Arabidopsis thaliana, UniProt Q8H1D4 1-3+82-150+73-81+4-72, internal_change); assay: ITC
T6 sequence: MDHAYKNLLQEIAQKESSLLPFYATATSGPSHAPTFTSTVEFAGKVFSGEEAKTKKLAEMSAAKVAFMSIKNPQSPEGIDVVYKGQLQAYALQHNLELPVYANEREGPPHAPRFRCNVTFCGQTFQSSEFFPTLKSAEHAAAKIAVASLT

B1: 80 bp dsRNA (dsRNA)
RNA 1: GGGUGCUGUUUCUCGUGUUCGUGUUCGUUUCUCUUCUCUUGUCCUUGUUCUGUUCUCCUUUGUUCGUUCCUGUUCCCCUU
RNA 2: AAGGGGAACAGGAACGAACAAAGGAGAACAGAACAAGGACAAGAGAAGAGAAACGAACACGAACACGAGAAACAGCACCC
- binding result (DRB4 H32A/K133A): no binding
- Kd (DRB4D1D2): 400 ± 30 nM
- Kd (DRB4): 120 ± 40 nM
- binding result (DRB4C): no binding
- binding result (DRB4D1D2 H32A/K133A): no binding
- Kd (DRB4D2D1): 4000 ± 400 nM

From article PMC5737894
